Consider seven molecules from PMC10044823, “Defensin Interactions in Relation to Monoclonal and Disease-Related Proteinase 3 Antibodies Binding at the Catalytic Site” (Antibodies, 2023).

What is called koff is the first-order rate constant of dissociation. By kon is commonly meant a measure of how fast the partners come together.

Substitutions are numbered along the chain they refer to.

In one assay the target is T1, human α1-antitrypsin (human, UniProt P01009 25-418).
T1 construct: also called AT; α1-AT; source: bought: Calbiochem, Merck
T1 sequence (P01009 25-418): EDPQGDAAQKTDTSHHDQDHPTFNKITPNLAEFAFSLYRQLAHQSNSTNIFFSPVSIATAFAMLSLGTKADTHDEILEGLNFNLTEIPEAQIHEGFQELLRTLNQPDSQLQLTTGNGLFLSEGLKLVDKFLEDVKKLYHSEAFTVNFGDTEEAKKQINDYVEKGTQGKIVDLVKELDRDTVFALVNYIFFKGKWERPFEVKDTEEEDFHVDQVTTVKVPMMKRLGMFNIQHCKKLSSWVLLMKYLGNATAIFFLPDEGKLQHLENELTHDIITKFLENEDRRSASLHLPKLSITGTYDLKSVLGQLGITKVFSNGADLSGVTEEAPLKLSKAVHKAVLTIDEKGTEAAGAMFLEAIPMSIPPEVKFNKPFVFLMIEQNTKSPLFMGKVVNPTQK
Put plainly: ELISA + other: SDS-PAGE; α1-AT binding of the PR3 preparations, 'Determined by ELISA and/or SDS-PAGE'. Conditions: both partners purified.

Assay [1] addresses T2, Proteinase 3 purified in-house from human neutrophil granulocytes (SSI PR3) (human, UniProt P24158, small N-linked glycans on Asn102 and 147; none, one or two alpha-defensins covalently attached to the glycans).
T2 construct: proteinase 3, human, active mature enzyme purified from neutrophil granulocytes; The preparation carries on average 5-6 associated alpha-defensins per PR3 (mostly non-covalent); proteolytically active; also called PR3 (SSI); native PR3 complex
Put plainly: ELISA; elution assays with buffers of different pH: pH at which the MAb dissociated from PR3. Conditions: both partners purified. For orientation: An ELISA detects its analyte on a solid surface through an enzyme-linked reagent.

The target of the next assay is T3, PR3 peptide 1 (Homo sapiens, UniProt P24158).
T3 construct: By the stated scheme (20-mers, overlap 10, from the mature N-terminus) this would be residues 1-20 of mature PR3; Coupled to CovaLink-NH plates by the extra N-terminal cysteine; source: synthetic peptide (Schäfer-N); not shown: cysteine, N-terminal, kept
T3 chain: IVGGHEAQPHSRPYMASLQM
Description: ELISA; synthetic 20-mer PR3 peptides coupled by an N-terminal cysteine to CovaLink-NH plates; MAb in solution; corrected by non-coated wells. The note with it: both partners purified.

In a further assay the target is T4, PR3 peptide 2 (Homo sapiens, UniProt P24158).
T4 construct: By the stated scheme this would be residues 11-30 of mature PR3; source: synthetic peptide (Schäfer-N); not shown: cysteine, N-terminal, kept
T4 chain: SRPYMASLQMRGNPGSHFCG
Described as above. Conditions: both partners purified.

A further assay deals with T5, PR3 peptide 3 (Homo sapiens, UniProt P24158).
T5 construct: By the stated scheme this would be residues 21-40 of mature PR3; source: synthetic peptide (Schäfer-N); not shown: cysteine, N-terminal, kept
T5 chain: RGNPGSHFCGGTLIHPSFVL
The assay is described as above. Conditions: both partners purified.

The target of a further assay is T6, PR3 peptide 7 (Homo sapiens, UniProt P24158).
T6 construct: By the stated scheme this would be residues 61-80 of mature PR3; source: synthetic peptide (Schäfer-N); not shown: cysteine, N-terminal, kept
T6 chain: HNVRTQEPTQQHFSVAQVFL
The assay is described as above. Conditions: both partners purified.

Another assay deals with T7, PR3 peptide 16 (Homo sapiens, UniProt P24158).
T7 construct: By the stated scheme this would be residues 151-170 of mature PR3; source: synthetic peptide (Schäfer-N); not shown: cysteine, N-terminal, kept
T7 chain: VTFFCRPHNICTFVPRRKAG
Described as above. Conditions: both partners purified.

Another assay addresses T8, PR3 peptide 17 (Homo sapiens, UniProt P24158).
T8 construct: By the stated scheme this would be residues 161-180 of mature PR3; source: synthetic peptide (Schäfer-N); not shown: cysteine, N-terminal, kept
T8 chain: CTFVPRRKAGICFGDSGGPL
The description is as above. The note with it: both partners purified.

The next assay has as its target T9, PR3 peptide 20 (Homo sapiens, UniProt P24158).
T9 construct: source: synthetic peptide (Schäfer-N); not shown: cysteine, N-terminal, kept
T9 chain: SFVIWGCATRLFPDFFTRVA
Described as above. Conditions: both partners purified.

For assay [2], the target named is T2, Proteinase 3 purified in-house from …. Put plainly: SPR; Biacore 1000, CM5 chip, SSI PR3 immobilised by amine coupling (1287 RU); MAb (whole IgG) injected at 0.1 and 0.4 µg/mL, 25 °C, HBS-E pH 7.4 (10 mM HEPES, 3 mM EDTA, 150 mM NaCl); Langmuir or drifting baseline fit; 'pseudo-affinity/avidity' constants (apparent). The note with it: both partners purified. For orientation: In SPR one partner is held on a chip, and binding of the other changes the refractive index at the surface.

For assay [3] the target is unchanged.

B1: Proteinase 3 purified in-house from human neutrophil granulocytes (SSI PR3) (enzyme, UniProt P24158 28-248, looked up)
chain: IVGGHEAQPHSRPYMASLQMRGNPGSHFCGGTLIHPSFVLTAAHCLRDIPQRLVNVVLGAHNVRTQEPTQQHFSVAQVFLNNYDAENKLNDVLLIQLSSPANLSASVATVQLPQQDQPVPHGTQCLAMGWGRVGAHDPPAQVLQELNVTVVTFFCRPHNICTFVPRRKAGICFGDSGGPLICDGIIQGIDSFVIWGCATRLFPDFFTRVALYVDWIRSTLR
modifications: small N-linked glycans on Asn102 and 147; none, one or two alpha-defensins covalently attached to the glycans
notes: proteinase 3, human, active mature enzyme purified from neutrophil granulocytes; The preparation carries on average 5-6 associated alpha-defensins per PR3 (mostly non-covalent); proteolytically active; also called PR3 (SSI); native PR3 complex
In the case of B1, the binding result with human α1-antitrypsin is “binds”.

B2: Proteinase 3 from Arotec (Arotec PR3) (enzyme, human, UniProt P24158 28-248, looked up)
chain: B1 chain
modifications: small N-linked glycans on Asn102 and 147; none, one or two alpha-defensins covalently attached to the glycans
notes: proteinase 3, human, commercial preparation; On average 1-2 associated defensins per PR3; source: bought: Arotec
On to B2, for which, in the assay with human α1-antitrypsin, the binding result is recorded as “binds”.

B3: Proteinase 3 from Wieslab/Eurodiagnostica (Wieslab PR3) (enzyme, human, UniProt P24158 28-248, looked up)
chain: B1 chain
modifications: small N-linked glycans on Asn102 and 147; none, one or two alpha-defensins covalently attached to the glycans
notes: proteinase 3, human, commercial preparation; The preparation carries on average 5-6 associated alpha-defensins per PR3; proteolytically active; also called PR3 (Wieslab); source: bought: Wieslab/Eurodiagnostica
Take B3: the binding result with human α1-antitrypsin is recorded as “binds”.

B4: PR3 MAb HYB 172-04 (antibody, V domains shown)
VH: EVKLEQSGPDLVKPGASVKISCKASGYSFTGYYLHWVKQSHGKSLEWIGRVNPNNDITTYNQKFKDKAILTVDKSSSTAYMEFRSLTSEDSAVYYCAGGGNALDYWGQGTSVTVSS
VL: EIVLTQSPAIMSASLGEEITLTCSASSSVSYMHWYQQKSGTSPKLLIYSTSNLASGVPSRFSGSGSGTFYSLTISSVEAEDAADYYCHQWSSYGTFGGGTKLEIK
notes: Mouse IgG2a,κ (clone 4A3); also called clone 4A3; source: mouse hybridoma, produced in-house
B4: the “Elution pH (High)” value in assay [1] was determined as 12 pH. Besides, the “Elution pH (Low)” value in assay [1] was 2 pH. For the same molecule, the binding result with PR3 peptide 1, in the assay with PR3 peptide 2, with PR3 peptide 3, in the assay with PR3 peptide 7, in the assay with PR3 peptide 16 and in the assay with PR3 peptide 17 was “binds” each time. For the same molecule, the binding result with PR3 peptide 20 is given as “binds”. In addition, the Ka in assay [2] was determined as 1.8e+10 M⁻¹. Moreover, the Kd in [2] worked out at 55.5 pM. The off-rate (koff) in assay [2] worked out at 0.000571 s⁻¹. Further, in assay [2], the kon amounted to 1.03e+07 M⁻¹ s⁻¹.

B5: 172-03 (antibody, V domains shown)
VH: QVQLQQAGAELVKPGASVKLSCKASGYTFTNYWMHWVKQRPGQGLEWIGEINPTNGGINYNEEFIKKATLTADKSSNTAYMQLSGLTSEDSAVYFCLIEIMTGEGYWGQGTSLTVSS
VL: DILMTQSPSSLTVSAGEKVTMSCKSSQNLLVSGNQNNYLAWHQQKPGRSPKMLIIWASTRVSGVPDRFIGSGSGTDFTLTINSVQAEDLAVYYCQQSFSAPLTFGAGTKLELK
As for B5, the binding result in assay [3] is listed as “binds”.

B6: PR3 MAb HYB 172-01 (antibody, V domains shown)
VH: EVQLEQSGGDLVKPGGSLKLSCAASGFTFSTYGMSWVRQTPDKRLEWVATFVSGGSYNYYPDSVKGRFAISRDNAKNALYLQMSSLKSEDTAMYYCVRRGASYDALDYWGQGTSVTVSS
VL: SIVMTQTPKFLLVSAGDRITITCKASQSVSNDVAWYQQKPGQSPKLLIYYASNRYTGVPDRFTGSGYGTDFTFTISTVQAEDLAVYFCQQDYSSPFTFGSGTKLEIK
notes: Mouse IgG1,κ (clone 6A6); raised against a Triton X-100 extract of purified neutrophil granulocyte alpha-granules; also called clone 6A6; source: mouse hybridoma, produced in-house
Take B6: in assay [1], the “Elution pH (High)” value is 12 pH and the “Elution pH (Low)” value came out at 4 pH. Further, the binding result in the assay with PR3 peptide 17 was “binds”. Besides, in assay [2], the Ka came to 5.23e+13 M⁻¹, the Kd came out at 0.0191 pM, the koff was determined as 5.21e-08 s⁻¹ and the kon amounted to 2.72e+06 M⁻¹ s⁻¹.

B7: PR3 MAb HYB 172-05 (antibody, V domains shown)
VH: B4 VH with K3Q, E5Q
VL: B6 VL with S1R, I19V, D32N, A34G, P40T, S93N, F96Y, S100G
notes: Mouse IgG2a,κ (clone 4A5); also called clone 4A5; source: mouse hybridoma, produced in-house
For the molecule B7, in assay [1], the “Elution pH (High)” value is 12 pH and the “Elution pH (Low)” value worked out at 2 pH. The binding result in the assay with PR3 peptide 17 is reported as “binds”. In [2], the Ka stood at 1.81e+11 M⁻¹, the koff came out at 6.84e-05 s⁻¹ and the on-rate (kon) was determined as 1.24e+07 M⁻¹ s⁻¹.
